Reference: US20040022767A1 (Genentech, published 2004)
Each block holds one binder with its values, some of them ahead of it.

Columns and labels:
[1] = molecular target: T1, soluble hek/Fc fusion protein (human, UniProt P29320 21-541; P01857 99-330 = IgG part, limits assumed); experiment: indirect Scatchard analysis; hek/Fc titrated on transfected CV-1/EBNA-1 cells, detected with 125I-mouse anti-human IgG
T1 construct: extracellular domain;domain: Fc region (hinge to native C-terminus); The extracellular domain and the dimeric state are inferred from that analogy

[2] = molecular target: T2, soluble rat elk/Fc fusion protein (rat; human, UniProt P09759 18-540; P01857 99-330 = IgG part, limits assumed); experiment: indirect Scatchard analysis, biphasic, first component; elk/Fc titrated on transfected CV-1/EBNA-1 cells, detected with 125I-mouse anti-human IgG
T2 construct: extracellular domain;domain: Fc region (hinge to native C-terminus)

[3] = molecular target: T2, soluble rat elk/Fc fusion protein; experiment: indirect Scatchard analysis, biphasic, second component; elk/Fc titrated on transfected CV-1/EBNA-1 cells, detected with 125I-mouse anti-human IgG
[4] = molecular target: T2, soluble rat elk/Fc fusion protein; experiment: indirect Scatchard analysis; elk/Fc titrated on transfected CV-1/EBNA-1 cells, detected with 125I-mouse anti-human IgG
Description: CV1-EBNA-1 cells (described in Example 3) in 12-well plates (2.5×10⁵ cells/well) were transfected with an expression vector containing the clone E7 elk-L cDNA. The mammalian expression vector, designated pDC410, is similar to pDC406 (McMahan et al., EMBO J. 10:2821, 1991). In pDC410, the EBV origin of replication of pDC406 is replaced by DNA encoding the SV40 large T antigen (driven from an SV40 promoter). The pDC410 multiple cloning site (mcs) differs from that of pDC406 in that it contains additional restriction sites and three stop codons (one in each reading frome). A T7 polymerase promoter downstream of the mcs facilitates sequencing of DNA inserted into the mcs. The transfected cells were cultured for two days to permit expression of the elk-L protein, then washed with BM-NFDMv (the binding medium described in Example 2, also containing 50 mg/ml nonfat dry milk), and incubated with various concentrations of the elk/Fc fusion protein prepared in Example 1, for 1 hour at 37° C. Subsequently, cells were washed and incubated with a constant saturating concentration of the ¹²⁵I-labeled mouse anti-human IgG antibody prepared in Example 2 (40 ng/ml) in binding medium with gentle agitation for 1 hour at 37° C. Cells then were harvested by trypsinization. […]

[5] = molecular target: T1, soluble hek/Fc fusion protein; experiment: indirect Scatchard analysis, biphasic, first component; hek/Fc titrated on transfected CV-1/EBNA-1 cells, detected with 125I-mouse anti-human IgG
[6] = molecular target: T1, soluble hek/Fc fusion protein; experiment: indirect Scatchard analysis, biphasic, second component; hek/Fc titrated on transfected CV-1/EBNA-1 cells, detected with 125I-mouse anti-human IgG

T1 sequence (P29320 other isoform, or with tags, fused parts or gaps limits assumed): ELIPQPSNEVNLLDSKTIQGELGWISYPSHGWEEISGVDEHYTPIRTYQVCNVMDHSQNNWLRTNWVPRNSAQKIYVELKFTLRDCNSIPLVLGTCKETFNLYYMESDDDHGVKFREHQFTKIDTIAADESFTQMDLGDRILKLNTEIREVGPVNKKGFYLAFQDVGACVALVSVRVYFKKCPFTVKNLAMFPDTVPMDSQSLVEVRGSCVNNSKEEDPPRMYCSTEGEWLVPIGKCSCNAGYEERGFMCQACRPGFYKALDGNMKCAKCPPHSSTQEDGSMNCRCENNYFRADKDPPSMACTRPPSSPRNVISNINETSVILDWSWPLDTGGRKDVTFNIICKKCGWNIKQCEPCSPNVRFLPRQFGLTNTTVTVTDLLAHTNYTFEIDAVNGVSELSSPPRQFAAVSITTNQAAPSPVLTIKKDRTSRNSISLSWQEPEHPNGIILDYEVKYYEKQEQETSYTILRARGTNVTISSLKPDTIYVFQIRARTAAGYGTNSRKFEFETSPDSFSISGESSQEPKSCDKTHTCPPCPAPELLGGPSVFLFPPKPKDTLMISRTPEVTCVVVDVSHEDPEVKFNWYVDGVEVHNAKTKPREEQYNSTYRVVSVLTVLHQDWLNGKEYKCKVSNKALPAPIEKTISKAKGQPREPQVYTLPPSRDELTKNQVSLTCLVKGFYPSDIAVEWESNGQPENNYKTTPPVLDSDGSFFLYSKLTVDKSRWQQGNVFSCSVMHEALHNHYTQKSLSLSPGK
T2 sequence (P09759 other isoform, or with tags, fused parts or gaps limits assumed): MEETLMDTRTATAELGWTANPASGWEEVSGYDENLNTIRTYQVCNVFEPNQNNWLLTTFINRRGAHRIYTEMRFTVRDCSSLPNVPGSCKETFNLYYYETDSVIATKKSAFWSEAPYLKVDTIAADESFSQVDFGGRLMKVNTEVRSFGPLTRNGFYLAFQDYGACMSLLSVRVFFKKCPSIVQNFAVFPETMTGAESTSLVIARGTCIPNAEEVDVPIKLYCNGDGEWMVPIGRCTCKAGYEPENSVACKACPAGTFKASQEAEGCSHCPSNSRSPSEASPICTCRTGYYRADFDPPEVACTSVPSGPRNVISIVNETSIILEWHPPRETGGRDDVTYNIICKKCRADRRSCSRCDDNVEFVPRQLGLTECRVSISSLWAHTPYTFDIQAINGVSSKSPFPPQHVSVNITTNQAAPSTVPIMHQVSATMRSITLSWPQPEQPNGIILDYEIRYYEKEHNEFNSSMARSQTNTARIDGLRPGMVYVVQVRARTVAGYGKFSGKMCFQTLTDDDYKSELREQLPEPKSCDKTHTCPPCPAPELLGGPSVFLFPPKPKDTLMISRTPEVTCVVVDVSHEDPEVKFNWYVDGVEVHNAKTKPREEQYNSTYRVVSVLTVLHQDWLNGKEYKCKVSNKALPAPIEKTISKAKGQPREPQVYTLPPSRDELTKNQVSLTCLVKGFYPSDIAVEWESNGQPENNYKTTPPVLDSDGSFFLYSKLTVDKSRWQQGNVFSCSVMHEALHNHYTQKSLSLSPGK

B3: hek-L protein designated A2, expressed on transfected CV-1/EBNA-1 cells (ligand, UniProt P52797 23-214, looked up)
chain: QGPGGALGNRHAVYWNSSNQHLRREGYTVQVNVNDYLDIYCPHYNSSGVGPGAGPGPGGGAEQYVLYMVSRNGYRTCNASQGFKRWECNRPHAPHSPIKFSEKFQRYSAFSLGYEFHAGHEYYYISTPTHNLHWKCLRMKVFVCCASTSHSGEKPVPTLPQFTMGPNVKINVLEDFEGENPQVPKLEKSISG
notes: whole, on cells; also called hek-L A2; hek ligand A2
Ka [1]: 2e+08 M⁻¹
Ka [2]: 2.7e+08 M⁻¹
Ka [3]: 3.5e+07 M⁻¹

B4: B61 protein expressed on transfected CV-1/EBNA-1 cells (ligand, human, UniProt P20827 19-182, looked up)
chain: DRHTVFWNSSNPKFRNEDYTIHVQLNDYVDIICPHYEDHSVADAAMEQYILYLVEHEEYQLCQPQSKDQVRWQCNRPSAKHGPEKLSEKFQRFTPFTLGKEFKEGHSYYYISKPIHQHEDRCLRLKVTVSGKITHSPQAHDNPQEKRLAADDPEVRVLHSIGHS
notes: whole, on cells
Ka [1]: 5.5e+07 M⁻¹
Ka [2]: 2.3e+08 M⁻¹
Ka [3]: 7e+07 M⁻¹

Continued, values first:

Ka [1]: 2e+08 M⁻¹
Ka [2]: 1.3e+08 M⁻¹
Ka [3]: 5.4e+07 M⁻¹
B1: hek-L protein designated C6, expressed on transfected CV-1/EBNA-1 cells (ligand, UniProt P52798 26-170, looked up)
chain: LRHVVYWNSSNPRLLRGDAVVELGLNDYLDIVCPHYEGPGPPEGPETFALYMVDWPGYESCQAEGPRAYKRWVCSLPFGHVQFSEKIQRFTPFSLGFEFLPGETYYYISVPTPESSGQCLRLQVSVCCKERKSESAHPVGSPGES
notes: whole, on cells; also called hek-L C6; hek ligand C6

Ka [4]: 1.08e+09 M⁻¹
Ka [5]: 2.3e+07 M⁻¹
Ka [6]: 2.9e+06 M⁻¹
B2: human elk ligand (elk-L), clone E7, expressed on transfected CV-1/EBNA-1 cells (ligand)
chain: ATPLAKNLEPVSWSSLNPKFLSGKGLVIYPKIGDKLDIICPRAEAGRPYEYYKLYLVRPEQAAACSTVLDPNVLVTCNRPEQEIRFTIKFQEFSPNYMGLEFKKHHDYYITSTSNGSLEGLENREGGVCRTRTMKIIMKVGQDPNAVTPEQLTTSRPSKEADNTVKMATQAPGSRGSLGDSDGKHETVNQEEKSGPGASGGSSGDPDGFFNSKVALFAAVGAGCVIFLLIIIFLTVLLLKLRKRHRKHTQQRAAALSLSTLASPKGGSGTAGTEPSDIIIPLRTTENNYCPHYEKVSGDYGHPVYIVQEMPPQSPANIYYKV
